Test results taken from paper PMC11490551, “The homeodomain regulates stable DNA binding of prostate cancer target ONECUT2”.

T1: OC2 CUT domain;OC2 HOX domain (human;human, UniProt O95948;O95948 317-417;420-490, |)
T1 sequence 1: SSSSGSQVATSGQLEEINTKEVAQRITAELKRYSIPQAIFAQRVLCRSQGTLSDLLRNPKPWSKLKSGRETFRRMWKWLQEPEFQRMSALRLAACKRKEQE
T1 sequence 2: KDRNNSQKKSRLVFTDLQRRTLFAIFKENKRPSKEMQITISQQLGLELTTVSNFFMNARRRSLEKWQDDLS

T2: OC2 (CUT-HOX DNA binding region, wild type) (human, UniProt O95948 330-485)
T2 sequence: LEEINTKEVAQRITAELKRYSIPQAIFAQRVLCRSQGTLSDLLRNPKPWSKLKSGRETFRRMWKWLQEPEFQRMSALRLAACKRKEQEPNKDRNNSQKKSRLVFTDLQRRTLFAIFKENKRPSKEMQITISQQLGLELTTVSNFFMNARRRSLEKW

T3: OC2 CUT domain (human, UniProt O95948 317-417)
T3 sequence: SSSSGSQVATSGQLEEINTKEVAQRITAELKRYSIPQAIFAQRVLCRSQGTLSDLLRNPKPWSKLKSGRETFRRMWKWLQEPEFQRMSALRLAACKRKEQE

T4: OC2SQ (human, UniProt O95948 330-485, S364A;Q365A)
T4 sequence: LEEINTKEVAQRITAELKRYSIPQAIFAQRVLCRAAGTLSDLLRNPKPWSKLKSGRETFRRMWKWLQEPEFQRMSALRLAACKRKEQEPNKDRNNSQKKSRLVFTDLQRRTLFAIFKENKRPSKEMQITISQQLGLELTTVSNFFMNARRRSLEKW

T5: OC2R480 (human, UniProt O95948 330-485, R480A)
T5 sequence: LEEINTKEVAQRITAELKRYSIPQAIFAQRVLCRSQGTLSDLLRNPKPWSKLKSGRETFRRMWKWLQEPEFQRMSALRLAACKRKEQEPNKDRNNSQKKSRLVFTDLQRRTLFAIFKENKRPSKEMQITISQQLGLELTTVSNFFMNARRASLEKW

T6: OC2R479 (human, UniProt O95948 330-485, R479A)
T6 sequence: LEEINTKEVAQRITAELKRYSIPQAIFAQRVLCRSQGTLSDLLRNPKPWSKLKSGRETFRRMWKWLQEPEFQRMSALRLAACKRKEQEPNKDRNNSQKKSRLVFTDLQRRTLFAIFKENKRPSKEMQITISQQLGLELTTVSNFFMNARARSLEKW

T7: OC2N (human, UniProt O95948 330-485, N476A)
T7 sequence: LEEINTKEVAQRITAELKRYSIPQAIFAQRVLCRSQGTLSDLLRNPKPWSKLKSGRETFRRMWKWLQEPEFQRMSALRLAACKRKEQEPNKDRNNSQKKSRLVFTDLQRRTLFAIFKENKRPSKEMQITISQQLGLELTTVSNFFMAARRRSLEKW

T8: ONECUT2 (OC2) residues 317-417, containing the CUT domain (Homo sapiens (Human), UniProt O95948)
T8 chain: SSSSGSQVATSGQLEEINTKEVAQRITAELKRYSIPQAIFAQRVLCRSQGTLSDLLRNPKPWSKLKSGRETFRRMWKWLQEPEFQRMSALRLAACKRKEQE


Assays:
[1] = target: T1, OC2 CUT domain;OC2 HOX domain; assay: ITC; CUT and HOX as separate polypeptides; ITC: 1X PBS pH 7.4, 0.005% Tween-20, 1 mM beta-ME, 25 C (also 12 and 30 C for heat capacity); BLI: 1X PBS, 0.5 mM TCEP, 0.005% Tween-20; conditions: protein: recombinant;recombinant; copies: 1;1
[2] = target: T2, OC2 (CUT-HOX DNA binding region, wild …); assay: ITC; 25 C; ITC: 1X PBS pH 7.4, 0.005% Tween-20, 1 mM beta-ME, 25 C (also 12 and 30 C for heat capacity); BLI: 1X PBS, 0.5 mM TCEP, 0.005% Tween-20; conditions: protein: recombinant; tags: His6 removed by TEV
OC2 CUT domain = target: T3, OC2 CUT domain; assay: as above; conditions: protein: recombinant; tags: His6-MBP, removed by TEV (same protocol as OC2)
OC2SQ = target: T4, OC2SQ; assay: ITC; ITC: 1X PBS pH 7.4, 0.005% Tween-20, 1 mM beta-ME, 25 C (also 12 and 30 C for heat capacity); BLI: 1X PBS, 0.5 mM TCEP, 0.005% Tween-20; conditions: protein: recombinant; tags: His6 removed by TEV
OC2R480 = target: T5, OC2R480; assay: as above; conditions: protein: recombinant; tags: His6 removed by TEV
OC2R479 = target: T6, OC2R479; assay: as above; conditions: protein: recombinant; tags: His6 removed by TEV
OC2N = target: T7, OC2N; assay: as above; conditions: protein: recombinant; tags: His6 removed by TEV
[3] = target: T8, ONECUT2 (OC2) residues 317-417, …; assay: ITC (implied; data not shown); absence of DNA

Row | Binder | Kd [1] [nM] | Kd [2] [nM] | Kd (OC2 CUT domain) [nM] | Kd (OC2SQ) [nM] | Kd (OC2R480) [nM] | Kd (OC2R479) [nM] | Kd (OC2N) [nM] | binding result [3]
1 | PEG10 promoter DNA (12mer duplex) (dsDNA) DNA 1: AGATCGATTTGC DNA 2: GCAAATCGATCT | 1380 ± 279 | 7 ± 2 | 2030 ± 262 | 51 ± 9 | 47 | 6 | 70 ± 11 | 
2 | ONECUT2 (OC2) residues 420-490, containing the HOX domain (protein) KDRNNSQKKSRLVFTDLQRRTLFAIFKENKRPSKEMQITISQQLGLELTTVSNFFMNARRRSLEKWQDDLS |  |  |  |  |  |  |  | no binding
